From publication PMC6382882

Experiments:
[1] = biological target: mKRb, recombinant fragment spanning the ketoreductase domain from module 7 of MLSB (Mycobacterium ulcerans); experiment: ITC; ACP species (1 mM) in the syringe injected into mKRb (50 uM) with 5 mM NADP+ in the cell; 25 mM HEPES, 50 mM NaCl, 0.01% NaN3, pH 7.5, 30 °C; single binding site model; mean of three technical replicates
[2] = biological target: mKRb, recombinant fragment spanning the ketoreductase domain from module 7 of MLSB (Mycobacterium ulcerans); experiment: ITC; ACP species (1 mM) in the syringe injected into mKRb (50 uM) with 5 mM NADPH in the cell; 25 mM HEPES, 50 mM NaCl, 0.01% NaN3, pH 7.5, 30 °C; single binding site model; mean of three technical replicates

apo mACPb, short B1-type ACP domain from module 7 of MLSB (domain or fragment)
Kd [1]: 2600 nM
Kd [2]: 2200 nM
stoichiometry N [2]: 1

apo mH0ACPa, N-terminally extended A1-type ACP domain from module 5 of MLSA1 (from UniProt Q6MZA4 11087-11185) (domain or fragment)
Kd [2]: 2200 nM

apo mH0ACPb, N-terminally extended B1-type ACP domain from module 7 of MLSB (domain or fragment)
Kd [1]: 1380 nM
Kd [2]: 1430 nM

holo mACPb, short B1-type ACP domain from module 7 of MLSB with Ppant (domain or fragment)
Kd [1]: 610 nM
Kd [2]: 750 nM

holo mH0ACPa, N-terminally extended A1-type ACP domain from module 5 of MLSA1 with Ppant (from UniProt Q6MZA4 11087-11185) (domain or fragment)
Kd [2]: 630 nM

holo mH0ACPb, N-terminally extended B1-type ACP domain from module 7 of MLSB with Ppant (domain or fragment)
Kd [1]: 710 nM
Kd [2]: 690 nM
